This note sets out measurements from patent publication US11685791B2, “Antibody binding specifically to N-terminal region of lysyl-tRNA synthetase exposed on cell membrane” (Zymedi Co., Ltd., priority 2017, dated 2023).

This assay deals with pulmonary arterial hypertension (PAH) models. As to the kind of experiment: Blood pressure and cardiac output in monocrotaline PAH model. It is filed as in vivo, rat. As to conditions: for CO / LVEDP / LVESP / RVEDP / RVESP: i.v. twice a week, 3 weeks, n = 5. Here is the method: After three weeks, the rats were anesthetized with isoflurane, and measured for blood flow and pressure by using a high-precision pneumatic measurement system (MPVS cardiovascular pressure and volume system, model name: MPVS Ultra, manufacturer: Millar Instruments). The right ventricular end-systolic pressure (RVESP), right ventricular end-diastolic pressure, left ventricular end-systolic pressure, left ventricular end-diastolic pressure were measured using an exclusive catheter (Mikro-Tip rat pressure catheter, manufacturer: Millar Instruments). The cardiac output was measured using a perivascular blood flow probe (Transonic Flow probes, manufacturer: Millar Instruments), and experimental method thereof was performed by the same method as disclosed in the following literature: Pacher P, Nagayama T, Mukhopadhyay P, Batkai S, Kass D A. Measurement of cardiac function using pressure-volume conductance catheter technique in mice and rats. Nat Protoc 2008; 3(9):1422-34.
The models of PAH, which is a disease having a close relation between immune cell invasion and pathological phenomena, were treated with N3 IgG antibody (1 mpk or 10 mpk) for 3 weeks (i.v., twice a week), and then measured for right ventricular end-systolic pressure (RVESP), right ventricular end-diastolic pressure (RVEDP), left ventricular end-systolic pressure (LVESP), left ventricular end-diastolic pressure (LVEDP), and cardiac output (CO).

B1: N3 IgG: IgG converted from N3 scFv; VH SEQ ID NO: 49, VL SEQ ID NO: 51; binds KRS N-terminal region (antibody, V domains shown)
VH: EVQLLESGGGLVQPGGSLRLSCAASGFTFSSYDMSWVRQAPGKGLEWVSAISYDNGNTYYADSVKGRFTISRDNSKNTLYLQMNSLRAEDTAVYYSARMALDFDYWGQGTLVTVSS
VL: QSVLTQPPSASGTPGQRVTISCTGSSSNIGSNYVTWYQQLPGTAPKLLIYDNSNRPSGVPDRFSGSKSGTSASLAISGLRSEDEADYYCASWDDSLSAYVFGGGTKLTVL
In the case of B1, the “change in RVESP” value (1 mpk and 10 mpk, PAH models) is given as “significantly reduced”. Further, for the setting “MCT + N3 Ab 1 mpk”, the CO came to 74.0 ± 0.9 mL/min, the LVEDP is recorded as 2.6 ± 1.9 mmHg, the LVESP is listed as 95.8 ± 4.8 mmHg and the RVEDP worked out at 1.4 ± 2.2 mmHg. Further, under “MCT + N3 Ab 1 mpk”, the RVESP was found to be 45.0 ± 8.1 mmHg. In addition, for the setting “MCT + N3 Ab 10 mpk”, the CO worked out at 59.8 ± 12.9 mL/min, the LVEDP turned out to be 4.6 ± 3.9 mmHg, the LVESP is 93.4 ± 11.3 mmHg and the RVEDP is recorded as 3.8 ± 1.3 mmHg. Further, the RVESP (MCT + N3 Ab 10 mpk) is 41.2 ± 7.7 mmHg. Further, the “change in LVESP” value (PAH models, antibody administered group) is “significantly increased”.
